Biological target: T1, preformed binary complex IL-18/IL-18Rα-ECD ( | human, UniProt Q14116 37-193; Q13478 22-329)
T1 sequence (looked up) 1: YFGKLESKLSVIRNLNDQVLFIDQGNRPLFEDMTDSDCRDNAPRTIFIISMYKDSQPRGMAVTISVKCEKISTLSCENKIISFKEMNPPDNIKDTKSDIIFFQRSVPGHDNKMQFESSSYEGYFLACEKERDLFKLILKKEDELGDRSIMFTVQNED
T1 sequence (looked up) 2: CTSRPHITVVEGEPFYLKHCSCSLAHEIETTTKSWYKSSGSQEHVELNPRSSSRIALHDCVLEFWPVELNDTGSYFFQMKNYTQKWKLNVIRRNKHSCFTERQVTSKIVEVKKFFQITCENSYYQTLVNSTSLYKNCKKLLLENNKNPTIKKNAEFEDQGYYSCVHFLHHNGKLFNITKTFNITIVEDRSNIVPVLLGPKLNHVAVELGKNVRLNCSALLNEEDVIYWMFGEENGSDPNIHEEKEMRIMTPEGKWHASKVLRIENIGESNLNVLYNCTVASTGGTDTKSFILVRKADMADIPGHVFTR
Test: SPR

B1: IL-18Rβ-ECD (extracellular domain of IL-18 receptor beta), wild type (receptor, human, UniProt O95256 20-354, looked up)
chain: FNISGCSTKKLLWTYSTRSEEEFVLFCDLPEPQKSHFCHRNRLSPKQVPEHLPFMGSNDLSDVQWYQQPSNGDPLEDIRKSYPHIIQDKCTLHFLTPGVNNSGSYICRPKMIKSPYDVACCVKMILEVKPQTNASCEYSASHKQDLLLGSTGSISCPSLSCQSDAQSPAVTWYKNGKLLSVERSNRIVVDEVYDYHQGTYVCDYTQSDTVSSWTVRAVVQVRTIVGDTKLKPDILDPVEDTLEVELGKPLTISCKARFGFERVFNPVIKWYIKDSDLEWEVSVPEAKSIKSTLKDEIIERNIILEKVTQRDLRRKFVCFVQNSIGNTTQSVQLKE
modifications: biotin (biotinylated IL-18Rβ-ECD, site not stated)
binding result: binds
